Paper PMC3411640, “Molecular Breeding of a Fungus Producing a Precursor Diterpene Suitable for Semi-Synthesis by Dissection of the Biosynthetic Machinery” (PLoS ONE, 2012)

What was measured:
[1] = system: CC(=O)SCCNC(=O)CCNC(=O)[C@H](O)C(C)(C)COP(=O)(O)OP(=O)(O)OC[C@H]1O[C@@H](n2cnc3c(N)ncnc32)[C@H](O)[C@@H]1OP(=O)(O)O; assay: HPLC, Hanes-Woolf; type: biochemical, Diaporthe amygdali; details: 203 µM 14 (dideacetyl-FC A), 50 mM Tris-HCl pH 8.5, 35°C
[2] = system: O=c1ccn([C@@H]2O[C@H](CO[P@@](=O)(O)O[P@@](=O)(O)O[C@H]3O[C@H](CO)[C@@H](O)[C@H](O)[C@H]3O)[C@@H](O)[C@H]2O)c(=O)[nH]1; assay: HPLC, Hanes-Woolf; type: biochemical, Diaporthe amygdali; details: 0.1 mM 9 (FC H aglycon), 50 mM MES pH 6.0, 30°C

| Substance | Km [1] | kcat [1] | Km [2] | kcat [2] |
| --- | --- | --- | --- | --- |
| acetyltransferase-2 (Orf12) (Diaporthe amygdali) | 63 ± 6.6 µM | 3.5×10^−3±0.17×10^−3 S^−1 | – | – |
| glycosyltransferase (Orf6) (Diaporthe amygdali) | – | – | 520 ± 46 µM | 0.40±0.044 S^−1 |
